In publication PMC10958106:

Target: AP2 core GST (α2 trunk, β2 trunk and μ2 subunit) (UniProt O94973)
Test: pull-down; AP2 core GST (or empty GST) bound to glutathione resin, incubated 3 h at 4 °C with extracts of HEK293 cells transfected with the receptor with or without HPV-16 E7; lysis buffer 50 mM HEPES pH 7.4, 150 mM NaCl, 1 mM MgCl2, 1% Triton X-100; Western blot

Sequence of UniProt O94973 (O94973 whole entry, chain 1 of 3): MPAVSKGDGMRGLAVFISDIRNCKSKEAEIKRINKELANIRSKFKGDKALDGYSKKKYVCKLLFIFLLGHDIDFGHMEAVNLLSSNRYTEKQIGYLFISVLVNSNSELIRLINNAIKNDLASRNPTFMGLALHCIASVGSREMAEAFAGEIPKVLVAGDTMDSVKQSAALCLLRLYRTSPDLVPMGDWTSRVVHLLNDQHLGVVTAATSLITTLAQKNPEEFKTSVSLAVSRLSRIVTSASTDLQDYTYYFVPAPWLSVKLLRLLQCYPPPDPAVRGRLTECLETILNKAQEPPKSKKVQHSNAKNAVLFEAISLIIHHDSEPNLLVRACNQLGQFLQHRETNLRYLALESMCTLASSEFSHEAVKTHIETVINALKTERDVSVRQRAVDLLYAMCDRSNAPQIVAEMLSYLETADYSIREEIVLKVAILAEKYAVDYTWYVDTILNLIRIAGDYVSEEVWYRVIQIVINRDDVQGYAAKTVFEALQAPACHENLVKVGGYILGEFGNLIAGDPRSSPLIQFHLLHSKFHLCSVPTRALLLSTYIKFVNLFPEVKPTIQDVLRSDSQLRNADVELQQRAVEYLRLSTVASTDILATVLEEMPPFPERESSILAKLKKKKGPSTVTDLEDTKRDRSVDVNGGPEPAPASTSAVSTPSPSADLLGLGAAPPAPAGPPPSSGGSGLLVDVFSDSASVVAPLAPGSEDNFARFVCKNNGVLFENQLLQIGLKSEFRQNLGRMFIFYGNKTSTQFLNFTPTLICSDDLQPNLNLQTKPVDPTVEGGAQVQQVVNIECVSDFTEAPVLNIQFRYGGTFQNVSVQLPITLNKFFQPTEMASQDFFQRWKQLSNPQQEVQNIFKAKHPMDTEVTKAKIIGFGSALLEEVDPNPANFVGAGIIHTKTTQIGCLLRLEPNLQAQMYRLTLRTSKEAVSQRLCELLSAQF
Sequence of UniProt O94973 (P63010 whole entry, chain 2 of 3, further chain): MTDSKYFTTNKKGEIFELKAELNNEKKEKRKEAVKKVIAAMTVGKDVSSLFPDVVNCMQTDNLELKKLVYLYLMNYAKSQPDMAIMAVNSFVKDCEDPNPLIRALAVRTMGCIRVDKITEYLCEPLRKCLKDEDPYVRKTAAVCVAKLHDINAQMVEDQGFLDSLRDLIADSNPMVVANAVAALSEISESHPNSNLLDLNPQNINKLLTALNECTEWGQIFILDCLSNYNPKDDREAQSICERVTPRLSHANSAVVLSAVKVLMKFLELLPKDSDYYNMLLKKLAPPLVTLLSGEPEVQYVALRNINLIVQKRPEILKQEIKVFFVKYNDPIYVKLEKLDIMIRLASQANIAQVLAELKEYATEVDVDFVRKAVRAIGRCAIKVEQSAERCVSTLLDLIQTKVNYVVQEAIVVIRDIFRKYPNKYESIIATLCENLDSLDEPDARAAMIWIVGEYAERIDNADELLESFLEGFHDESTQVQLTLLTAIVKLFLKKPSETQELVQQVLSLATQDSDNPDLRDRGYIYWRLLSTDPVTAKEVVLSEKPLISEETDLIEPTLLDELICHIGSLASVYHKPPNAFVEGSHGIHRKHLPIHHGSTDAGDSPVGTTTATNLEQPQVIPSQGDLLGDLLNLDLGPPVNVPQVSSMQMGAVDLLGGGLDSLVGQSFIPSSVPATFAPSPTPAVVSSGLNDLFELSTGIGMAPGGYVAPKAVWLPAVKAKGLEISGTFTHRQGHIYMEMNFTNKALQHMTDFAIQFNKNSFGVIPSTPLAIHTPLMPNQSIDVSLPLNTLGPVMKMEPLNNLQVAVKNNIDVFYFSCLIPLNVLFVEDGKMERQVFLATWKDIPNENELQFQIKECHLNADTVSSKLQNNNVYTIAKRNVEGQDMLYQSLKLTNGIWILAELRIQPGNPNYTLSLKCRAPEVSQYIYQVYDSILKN
Sequence of UniProt O94973 (Q96CW1 whole entry, chain 3 of 3, further chain): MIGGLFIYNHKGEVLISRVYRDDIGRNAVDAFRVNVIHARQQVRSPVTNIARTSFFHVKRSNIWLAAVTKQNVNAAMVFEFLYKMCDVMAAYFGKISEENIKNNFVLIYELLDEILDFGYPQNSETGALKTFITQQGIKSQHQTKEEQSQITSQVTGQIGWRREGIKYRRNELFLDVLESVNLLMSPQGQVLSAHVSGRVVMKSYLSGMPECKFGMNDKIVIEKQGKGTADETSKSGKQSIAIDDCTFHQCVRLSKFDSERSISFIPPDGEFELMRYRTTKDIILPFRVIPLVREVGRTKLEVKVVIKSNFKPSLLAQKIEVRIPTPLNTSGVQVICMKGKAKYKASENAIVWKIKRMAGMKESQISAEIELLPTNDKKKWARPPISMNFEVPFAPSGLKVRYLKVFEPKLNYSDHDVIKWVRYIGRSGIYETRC

With “HPV-16 E7-FLAG/HA (from UniProt P03129 1-98) (natural protein)” the percent reduction of the binding of CD109 to the AP2 core in the presence of E7 was 50%, the percent reduction of the binding of EGFR to the AP2 core in the presence of E7 was > 70% and the percent reduction of the binding of MET to the AP2 core in the presence of E7 was 50%.
